Earlier results as cited in patent publication US20200102349A1, “PEPTIDE REAGENTS AND METHODS FOR DETECTION AND TARGETING OF DYSPLASIA, EARLY CANCER AND CANCER” (THE REGENTS OF THE UNIVERSITY OF MICHIGAN, priority 2014, published 2020).

Tested on: mouse xenograft tumor that overexpressesed EGFR
Details: whole body fluorescence imaging

B1: Human recombinant EGF: Human recombinant EGF labeled with IRDye 800 CW (NHS ester) (protein, UniProt P01133 23-1207, looked up)
Pro-epidermal growth factor: PQHWSCPEGTLAGNGNSTCVGPAPFLIFSHGNSIFRIDTEGTNYEQLVVDAGVSVIMDFHYNEKRIYWVDLERQLLQRVFLNGSRQERVCNIEKNVSGMAINWINEEVIWSNQQEGIITVTDMKGNNSHILLSALKYPANVAVDPVERFIFWSSEVAGSLYRADLDGVGVKALLETSEKITAVSLDVLDKRLFWIQYNREGSNSLICSCDYDGGSVHISKHPTQHNLFAMSLFGDRIFYSTWKMKTIWIANKHTGKDMVRINLHSSFVPLGELKVVHPLAQPKAEDDTWEPEQKLCKLRKGNCSSTVCGQDLQSHLCMCAEGYALSRDRKYCEDVNECAFWNHGCTLGCKNTPGSYYCTCPVGFVLLPDGKRCHQLVSCPRNVSECSHDCVLTSEGPLCFCPEGSVLERDGKTCSGCSSPDNGGCSQLCVPLSPVSWECDCFPGYDLQLDEKSCAASGPQPFLLFANSQDIRHMHFDGTDYGTLLSQQMGMVYALDHDPVENKIYFAHTALKWIERANMDGSQRERLIEEGVDVPEGLAVDWIGRRFYWTDRGKSLIGRSDLNGKRSKIITKENISQPRGIAVHPMAKRLFWTDTGINPRIESSSLQGLGRLVIASSDLIWPSGITIDFLTDKLYWCDAKQSVIEMANLDGSKRRRLTQNDVGHPFAVAVFEDYVWFSDWAMPSVMRVNKRTGKDRVRLQGSMLKPSSLVVVHPLAKPGADPCLYQNGGCEHICKKRLGTAWCSCREGFMKASDGKTCLALDGHQLLAGGEVDLKNQVTPLDILSKTRVSEDNITESQHMLVAEIMVSDQDDCAPVGCSMYARCISEGEDATCQCLKGFAGDGKLCSDIDECEMGVPVCPPASSKCINTEGGYVCRCSEGYQGDGIHCLDIDECQLGEHSCGENASCTNTEGGYTCMCAGRLSEPGLICPDSTPPPHLREDDHHYSVRNSDSECPLSHDGYCLHDGVCMYIEALDKYACNCVVGYIGERCQYRDLKWWELRHAGHGQQQKVIVVAVCVVVLVMLLLLSLWGAHYYRTQKLLSKNPKNPYEESSRDVRSRRPADTEDGMSSCPQPWFVVIKEHQDLKNGGQPVAGEDGQAADGSMQPTSWRQEPQLCGMGTEQGCWIPVSSDKGSCPQVMERSFHMPSYGTQTLEGGVEKPHSLLSANPLWQQRALDPPHQMELTQ
modifications: Pro-epidermal growth factor IRDye 800CW label
time of peak signal after injection: 2 days
